Test results taken from patent publication US20240254229A1 (Molecular Partners, published 2024).

T1: human scCD3εγ (scCD3εγ_Avi-Bio) (human, biotin on the C-terminal Avi-tag (in vitro, BirA) where the biotinylated form was used)
T1 construct: Used for all SPR and HTRF results on human CD3; also called recombinant human CD3; human CD3
T1 chain: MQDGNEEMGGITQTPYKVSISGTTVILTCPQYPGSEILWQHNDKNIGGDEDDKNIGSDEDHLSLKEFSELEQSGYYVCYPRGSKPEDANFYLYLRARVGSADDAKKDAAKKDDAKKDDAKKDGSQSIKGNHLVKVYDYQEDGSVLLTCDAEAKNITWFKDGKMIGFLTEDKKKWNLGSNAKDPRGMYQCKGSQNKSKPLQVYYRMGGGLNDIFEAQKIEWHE

T2: biotinylated extracellular domain of human CD123 (SEQ ID NO: 88), Fc and Avi tagged (human, UniProt P26951 19-303, biotinylated with BirA-GST (Avi tag))
T2 construct: also called hCD123
T2 sequence: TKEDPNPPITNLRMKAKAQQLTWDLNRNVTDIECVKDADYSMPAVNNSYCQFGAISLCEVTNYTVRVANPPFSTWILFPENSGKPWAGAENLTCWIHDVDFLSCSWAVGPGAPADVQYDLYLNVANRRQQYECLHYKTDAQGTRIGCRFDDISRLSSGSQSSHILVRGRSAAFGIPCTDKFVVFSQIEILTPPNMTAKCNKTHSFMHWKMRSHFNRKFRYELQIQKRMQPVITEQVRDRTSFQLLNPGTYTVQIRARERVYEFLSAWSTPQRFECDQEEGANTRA

T3: extracellular domain of human CD70 (SEQ ID NO: 89), hCD70-Fc-trimer, ACRO Biosystems (human, UniProt P32970 52-193, chemically biotinylated where the biotinylated form was used)
T3 construct: also called human CD70-Fc-trimer; Bio.CD70
T3 sequence: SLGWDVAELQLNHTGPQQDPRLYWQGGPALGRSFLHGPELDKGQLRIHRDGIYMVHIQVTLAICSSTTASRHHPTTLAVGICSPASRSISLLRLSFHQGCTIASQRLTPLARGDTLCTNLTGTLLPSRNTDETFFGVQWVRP

B1: DARPin® protein #57 (designed binder)
chain: DLGKKLLEAARAGQDDEVRELLKAGADVNAKDYFSHTPLHLAARNGHLKIVEVLLKAGADVNAKDFAGKTPLHLAAADGHLEIVEVLLKAGADVNAQDIFGKTPADIAADAGHEDIAEVLQKAAGSPTPTPTTPTPTPTTPTPTPTGSDLGKKLLEAARAGQDDEVRELLKAGADVNAKDYFSHTPLHLAARNGHLKIVEVLLKAGADVNAKDFAGKTPLHLAAADGHLEIVEVLLKAGADVNAQDIFGKTPADIAADAGHEDIAEVLQKAAGSPTPTPTTPTPTPTTPTPTPTGSDLGIKLLTAAYDGQLDEVRILLKAGADVNAKDLRGQTPLHYAAGLGHLEIVEVLLKAGADVNAKDLHGWTPLHLAAWSGHLEIVEVLLKAGADVNAQDVEGVTPADLAAVQGHQDIAEVLQKAAGSPTPTPTTPTPTPTTPTPTPTGSDLGKKLLQAALEGQLDEVRELLKAGADVNAKDIEGYTPLHLAAALGHLEIVEVLLKAGADVNAKDQIGRTPLHLAAYKGHLEIVEVLLKAGADVNAQDIIGQTPADLAAQRGHQDIAEVLQKAAGSPTPTPTTPTPTPTTPTPTPTGSDLGKKLLLAAERGQLDEVRILLKAGADVNAKDRAEGYTPLHIAAYQGHLEIVEVLLKAGADVNAKDRYGKTPLHLAAISGHLEIVEVLLKAGADVNAQDNKGSTPADLAADYGHQDIAEVLQKAAGSPTGSDLGQKLLEAAWAGQDDEVRELLKAGADVNAKNSRGWTPLHTAAQTGHLEIFEVLLKAGADVNAKNDKRVTPLHLAAALGHLEIVEVLLKAGADVNARDSWGTTPADLAAKYGHQDIAEVLQKAA
notes: HSA-HSA-CD70-CD123-CD33-CD3; not shown: N-terminal His-tag
B2: DARPin® protein #56 (designed binder)
chain: DLGKKLLEAARAGQDDEVRELLKAGADVNAKDYFSHTPLHLAARNGHLKIVEVLLKAGADVNAKDFAGKTPLHLAAADGHLEIVEVLLKAGADVNAQDIFGKTPADIAADAGHEDIAEVLQKAAGSPTPTPTTPTPTPTTPTPTPTGSDLGKKLLEAARAGQDDEVRELLKAGADVNAKDYFSHTPLHLAARNGHLKIVEVLLKAGADVNAKDFAGKTPLHLAAADGHLEIVEVLLKAGADVNAQDIFGKTPADIAADAGHEDIAEVLQKAAGSPTPTPTTPTPTPTTPTPTPTGSDLGVKLLLAAERGQLDEVRILLKAGADVNAKDIAEGYTPLHIAAYQGHLEIVEVLLKAGADVNAKDRYGKTPLHLAAIGGHLEIVEVLLKAGADVNAQDNKGSTPADLAADYGHQDIAEVLQKAAGSPTPTPTTPTPTPTTPTPTPTGSDLGKKLLEAALEGQLDEVRELLKAGADVNAKDQEGYTPLHLAAALGHLEIVEVLLKAGADVNAKDQIGRTPLHLAAYKGHLEIVEVLLKAGADVNAQDIIGQTPADLAAQRGHQDIAEVLQKAAGSPTPTPTTPTPTPTTPTPTPTGSDLGIKLLTAAYDGQLDEVRILLKAGADVNAKDLRGQTPLHYAAGLGHLEIVEVLLKAGADVNAKDLHGWTPLHLAAWSGHLEIVEVLLKAGADVNAQDVEGVTPADLAAVQGHQDIAEVLQKAAGSPTPTPTTPTPTPTTPTPTPTGSDLGQKLLEAAWAGQDDEVRELLKAGADVNAKNSRGWTPLHTAAQTGHLEIFEVLLKAGADVNAKNDKRVTPLHLAAALGHLEIVEVLLKAGADVNARDSWGTTPADLAAKYGHQDIAEVLQKAA
notes: HSA-HSA-CD33-CD123-CD70-CD3; not shown: N-terminal His-tag

Columns and labels:
[1] = biological target: T1, human scCD3εγ (scCD3εγ_Avi-Bio); experiment: SPR, set-up not described
[2] = biological target: T4, human serum albumin (human, UniProt P02768 25-609); experiment: SPR, set-up not described
T4 construct: also called HSA; SA

[3] = biological target: T5, Molm-13 N1 tumor cells (carrying CD123, CD33 and CD70) (human, UniProt P20138 18-364; P26951 19-378; P32970 1-193); experiment: flow cytometry on Molm-13 N1 cells, 20 uM HSA
T5 construct: whole, on cells; Not a complex: three separate antigens on one cell; also called Molm-13 N1 cells
Procedure: The determination of binding of several multispecific proteins to tumor cells was performed by Fluorescence Activated Cell Sorting (FACS) flow cytometry. Therefore, tumor cells (Molm-13 N1), were seeded at 100′000 cells per well in a 96 well plate. DARPin® protein #56, DARPin® protein #57, DARPin® protein #58, DARPin® protein #59, DARPin® protein #60, DARPin® protein #61 and DARPin® protein #62 were titrated down starting at 100 nM in 1:5 dilution ratio. Tumor cells were resuspended with diluted DARPin® proteins and incubated 60 minutes at 4° C. The assay was performed in PBS including 2% fetal bovine serum and human serum albumin 20 uM (HSA). After washing twice with Phosphate Buffer saline (PBS), DARPin® protein specific tumor cell binding was detected by adding unlabelled primary […] (anti-rabbit 1-1-1 antibody, CePower) at 2 ug/ml. An incubation step of at least 30 minutes at 4° C. followed. Afterwards, cells were washed with PBS and a secondary anti-rabbit antibody labelled with Alexa Fluor 647 antibody (ThermoFisher) at 2 ug/ml was added. The same incubation conditions applied. Finally, the cells were washed twice and resuspended in Cytofix fixation buffer (BD Biosciences) for 15 min at room temperature (RT). Median fluorescence intensities (MFI) of Alexa Fluor 647 DARPin® labelled cells were measured by Attune NxT (Thermo Fisher) using FlowJo software for analyses and GraphPad Prism 8 for data plotting.

[4] = biological target: T6, biotinylated extracellular domain of human CD33 (SEQ ID NO: 87), Fc and Avi tagged (human, UniProt P20138 18-259, biotinylated with BirA-GST (Avi tag)); experiment: SPR (ProteOn), DARPin immobilized, hCD33 as analyte
T6 construct: also called hCD33; human target hCD33
Procedure: For measuring the interaction with human CD33, DARPin® protein #56 and DARPin® protein #57 were diluted in 10 mM NaOAc pH 4.0 and immobilized on an NHS/EDC activated HC200M sensorchip (XanTec bioanalytics GmbH) to a level of around 1000 resonance units (RU) (SMA555) or 1400 Rus (PSC466) using a ProteOn (BioRad). The surface was deactivated using Ethanolamine. The interaction of the tested proteins and human target hCD33 (SEQ ID NO:87) was then measured by injecting 400 μl running buffer (PBS, pH 7.4 containing 0.005% Tween 200) containing three-fold serial dilutions of human target hCD33 covering a concentration range between 66.7 nM and 0.82 nM, followed by a running buffer flow for 500 seconds at a constant flow rate of 100 μl/min (off-rate measurement). After each measurement, a 10 min pause was introduced to allow for complete dissociation of the analyte. Each interaction was recorded in triplicates. The signals (i.e. resonance unit (RU) values) of the interspots and a reference injection (i.e. injection of running buffer only) were subtracted from the RU traces obtained injecting human hCD33 (double-referencing). Dissociation constants (KD) were calculated from the globally fitted on- and off-rates using standard 1:1-Langmuir model.

[5] = biological target: T2, biotinylated extracellular domain of …; experiment: SPR (Bruker Sierra SPR-32 Pro), hCD123 on IgG capture chip
Procedure: The binding affinities of selected multispecific ankyrin repeat proteins on recombinant targets were analyzed using ProteOn (BioRad) and Bruker Sierra SPR-32 Pro instruments. The measurements were performed according to standard procedures known to the person skilled in the art. For that, DARPin® protein #56 and DARPin® protein #57 of the invention were subcloned and expressed as described above into derivatives of the pQE30 (Qiagen) expression vectors, containing an N-terminal His-tag, two human serum album specific binding domains and CD70, CD123 and CD33 specific binding domains, followed by one CD3 specific binding domain.
Similarly, human target_hCD123 (SEQ ID NO: 88) was diluted in PBST (PBS, pH 7.4 containing 0.005% Tween 20®) and captured on a Bruker IgG Capture sensorchip to a level of around 177 resonance units (RU) using a Bruker Sierra SPR-32pro. The interaction of each tested ankyrin repeat protein and target_hCD123 was then measured by injecting 100 μl running buffer (PBS, pH 7.4 containing 0.005% Tween 200) containing three-fold serial dilutions of ankyrin repeat proteins covering a concentration range between 200 nM and 91 pM, followed by a running buffer flow for at least 1500 seconds at a constant flow rate of 25 μl/min (off-rate measurement). […] Each interaction was recorded in triplicates. […]

[6] = biological target: T3, extracellular domain of human CD70 (SEQ …); experiment: SPR (ProteOn), hCD70-Fc-trimer captured on protein A/G chip
Procedure: Briefly, human target CD70 (SEQ ID NO: 89; hCD70-Fc-trimer, ACRO Biosystems) was diluted in PBST (PBS, pH 7.4 containing 0.005% Tween 20®) and captured on a PAGD200L protein A/G sensorchip (XanTec bioanalytics GmbH) to a level of around 36 resonance units (RU) using a ProteOn (BioRad). The interaction of each tested ankyrin repeat protein and human CD70-Fc-trimer was then measured by injecting 400 μl running buffer (PBS, pH 7.4 containing 0.005% Tween 20®) containing three-fold serial dilutions of ankyrin repeat proteins covering a concentration range between 600 nM and 7.4 nM, followed by a running buffer flow for 2700 seconds at a constant flow rate of 100 μl/min (off-rate measurement). The regeneration was performed using 30 μl of 10 mM glycine pH 2 and hCD70-Fc-trimer was reinjected to prepare the surface for the next measurement. Each interaction was recorded in triplicates. The signals (i.e. resonance unit (RU) values) of the interspots and a reference injection (i.e. injection of running buffer only) were subtracted from the RU traces obtained injecting the ankyrin repeat protein (double-referencing). Dissociation constants (KD) were calculated from the globally fitted on- and off-rates using standard 1:1-Langmuir model.

T4 sequence (P02768 25-609 limits assumed): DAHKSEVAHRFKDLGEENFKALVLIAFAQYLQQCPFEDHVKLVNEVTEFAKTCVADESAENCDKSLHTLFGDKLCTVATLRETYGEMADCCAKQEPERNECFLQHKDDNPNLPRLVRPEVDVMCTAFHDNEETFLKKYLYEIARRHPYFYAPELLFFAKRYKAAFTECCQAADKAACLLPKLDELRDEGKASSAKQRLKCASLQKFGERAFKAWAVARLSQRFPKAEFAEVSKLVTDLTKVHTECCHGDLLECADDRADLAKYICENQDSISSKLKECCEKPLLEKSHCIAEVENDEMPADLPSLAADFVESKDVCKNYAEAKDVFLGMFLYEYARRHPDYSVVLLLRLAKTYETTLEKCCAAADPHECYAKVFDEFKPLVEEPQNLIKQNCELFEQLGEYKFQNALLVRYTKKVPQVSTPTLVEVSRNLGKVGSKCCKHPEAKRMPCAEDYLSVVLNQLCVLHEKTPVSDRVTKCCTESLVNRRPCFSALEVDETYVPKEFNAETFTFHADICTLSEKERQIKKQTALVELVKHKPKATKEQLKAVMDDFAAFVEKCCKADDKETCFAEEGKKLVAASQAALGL
T6 sequence (P20138 18-259 R69G): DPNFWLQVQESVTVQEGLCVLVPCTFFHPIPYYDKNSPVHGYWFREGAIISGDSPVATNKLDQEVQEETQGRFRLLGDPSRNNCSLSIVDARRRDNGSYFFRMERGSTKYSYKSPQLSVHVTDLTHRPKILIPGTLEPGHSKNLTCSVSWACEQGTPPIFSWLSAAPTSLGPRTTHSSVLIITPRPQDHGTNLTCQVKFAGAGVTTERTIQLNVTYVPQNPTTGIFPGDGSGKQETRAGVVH
T5 sequence (P20138 18-364, one chain of several): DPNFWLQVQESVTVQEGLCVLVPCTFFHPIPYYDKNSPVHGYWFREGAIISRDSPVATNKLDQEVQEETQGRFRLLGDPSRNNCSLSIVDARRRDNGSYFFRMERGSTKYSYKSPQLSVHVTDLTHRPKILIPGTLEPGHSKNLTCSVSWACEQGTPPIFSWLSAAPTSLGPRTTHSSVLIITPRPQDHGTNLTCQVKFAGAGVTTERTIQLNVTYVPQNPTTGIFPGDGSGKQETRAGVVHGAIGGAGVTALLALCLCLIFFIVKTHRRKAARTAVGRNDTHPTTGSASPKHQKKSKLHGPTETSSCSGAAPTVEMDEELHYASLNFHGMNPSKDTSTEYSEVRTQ

Binder | Kd [1] | Kd [2] | EC50 [3] | Kd [4] | Kd [5] | Kd [6]
B1 | 29 nM | 110 nM | 0.13 nM | 12 nM | 0.094 nM | 0.82 nM
B2 | 24 nM | 120 nM | 0.26 nM | 5.1 nM | 0.056 nM | 0.61 nM
